Values belong to the molecule of their own block, whether it stands above or below them.
Columns and labels:
[1] = biological target: His-MBP-tagged N. fulvescens Atg17 (N. fulvescens); assay: negative stain EM
negative stain EM = biological target: the molecule itself; assay: negative stain EM

stoichiometry N [1]: 2
Molecule: His-MBP-tagged N. fulvescens Atg17 (natural protein)

B1: His-MBP-tagged S. pombe Atg17 (natural protein, UniProt O42651 1-411, looked up)
chain: MELLQQWTQQAKAALTQARQLCGDAHKFNEDAKTDLRNSIKQHQQLKELAKLTASQCTRLDSSTALIKQLLDLVQNYPTFNQLNVLHDRLESSLKRLRDCTLDPALGSEYTNLYAFVDDTALEDLKTRLRGVTDGVWNAFEKLAGLLEEDLCANYHKRLEAVSLDFLPPAYNDTAEELADLLLQVAQHYDQCSEALNIYDTLSDAEKKDLQEVLQSDSNHVPSVLTELRSGLDQTIHYFNAVQSYKSKVDSATSILEALAEELNKNQLTNQRHEAAHELMRAQTGLEIPQLAQELVQLERHYTHFAKAYTALLQEIHRRQTYENCVRSIVDEFVGRLEKEQQAEAKCRIDFFNQYGDYLPQTLWGAVTDPPLHFEIIEHQYTELPNVKVIPDKNDKKSKQREKSSTTASKR
stoichiometry N (negative stain EM): 2

B2: His-MBP-tagged S. cerevisiae Atg17 (natural protein, UniProt Q06410 1-417, looked up)
chain: MNEADVTKFVNNARKTLTDAQLLCSSANLRIVDIKKKLSSWQLSISKLNFLIVGLRQQGKFLYTILKEGIGTKLIQKQWNQAVLVVLVDEMKYWQYEITSKVQRLDGIVNELSISEKDDTDPSKLGDYISRDNVNLLNDKLKEVPVIERQIENIKLQYENMVRKVNKELIDTKLTDVTQKFQSKFGIDNLMETNVAEQFSRELTDLEKDLAEIMNSLTQHFDKTLLLQDKKIDNDEREELFKVVQGDDKELYNIFKTLHEVIDDVDKTILNLGQFLQAKIKEKTELHSEVSEIINDFNRNLEYLLIFKDISNLIDSFKNSCTQDIQTTKELCEFYDNFEESYGNLVLEAKRRKDVANRMKTILKDCEKQLQNLDAQDQEERQNFIAENGTYLPETIWPGKIDDFSSLYTLNYNVKNP
stoichiometry N (negative stain EM): 2

Reference: paper PMC12482441 (Autophagy Reports, 2025)
